# B1: Dolichyl-phosphate-mannose--protein mannosyltransferase 1 (Saccharomyces cerevisiae), P33775 (parent)
# chain: MSEEKTYKRVEQDDPVPELDIKQGPVRPFIVTDPSAELASLRTMVTLKEKLLVACLAVFTAVIRLHGLAWPDSVVFDEVHFGGFASQYIRGTYFMDVHPPLAKMLYAGVASLGGFQGDFDFENIGDSFPSTTPYVLMRFFSASLGALTVILMYMTLRYSGVRMWVALMSAICFAVENSYVTISRYILLDAPLMFFIAAAVYSFKKYEMYPANSLNAYKSLLATGIALGMASSSKWVGLFTVTWVGLLCIWRLWFMIGDLTKSSKSIFKVAFAKLAFLLGVPFALYLVFFYIHFQSLTLDGDGASFFSPEFRSTLKNNKIPQNVVADVGIGSIISLRHLSTMGGYLHSHSHNYPAGSEQQQSTLYPHMDANNDWLLELYNAPGESLTTFQNLTDGTKVRLFHTVTRCRLHSHDHKPPVSESSDWQKEVSCYGYSGFDGDANDDWVVEIDKKNSAPGVAQERVIALDTKFRLRHAMTGCYLFSHEVKLPAWGFEQQEVTCASSGRHDLTLWYVENNSNPLLPEDTKRISYKPASFISKFIESHKKMWHINKNLVEPHVYESQPTSWPFLLRGISYWGENNRNVYLLGNAIVWWAVTAFIGIFGLIVITELFSWQLGKPILKDSKVVNFHVQVIHYLLGFAVHYAPSFLMQRQMFLHHYLPAYYFGILALGHALDIIVSYVFRSKRQMGYAVVITFLAASVYFFKSFSPIIYGTPWTQELCQKSQWLSGWDYNCNTYFSSLEEYKNQTLTKRESQPAATSTVEEITIEGDGPSYEDLMNEDGKKIFKDTEGNELDPEVVKKMLEEEGANILKVEKRAVLE
# partner: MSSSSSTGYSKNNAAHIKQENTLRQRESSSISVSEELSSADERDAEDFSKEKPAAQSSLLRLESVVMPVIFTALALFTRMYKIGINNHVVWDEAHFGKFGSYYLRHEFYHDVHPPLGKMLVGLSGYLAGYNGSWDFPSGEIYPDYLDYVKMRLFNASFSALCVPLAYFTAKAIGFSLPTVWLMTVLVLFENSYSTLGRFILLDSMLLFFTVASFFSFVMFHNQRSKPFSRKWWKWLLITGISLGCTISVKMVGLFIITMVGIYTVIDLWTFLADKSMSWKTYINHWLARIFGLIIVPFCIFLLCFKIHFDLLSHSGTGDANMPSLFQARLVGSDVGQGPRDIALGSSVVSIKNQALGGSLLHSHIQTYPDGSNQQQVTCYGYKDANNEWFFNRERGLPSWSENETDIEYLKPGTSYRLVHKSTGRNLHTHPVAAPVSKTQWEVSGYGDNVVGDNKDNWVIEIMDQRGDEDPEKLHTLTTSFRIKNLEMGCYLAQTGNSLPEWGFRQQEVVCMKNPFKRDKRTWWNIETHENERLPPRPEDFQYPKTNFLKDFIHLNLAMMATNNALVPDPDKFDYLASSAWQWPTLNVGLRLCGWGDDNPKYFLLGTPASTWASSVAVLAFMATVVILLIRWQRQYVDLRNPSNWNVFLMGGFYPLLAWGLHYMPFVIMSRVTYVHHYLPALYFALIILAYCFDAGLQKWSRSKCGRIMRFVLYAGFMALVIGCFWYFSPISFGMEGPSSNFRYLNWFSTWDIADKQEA
# Variants of: B1
# Conditions: with pmt2_yeast PMT2, P31382
row,Variant,effect of a mutation on the interaction
1,R138A,disrupting interaction strength
2,R138K,decreasing interaction strength
